Results published in US20250295799A1, “ANTIBODY-DRUG CONJUGATES TARGETING GLYPICAN-3 AND METHODS OF USE” (Zymeworks BC Inc., priority 2022, published 2025).
Values belong to the binder of their own block, whether it stands above or below them.

Molecular target: Insulin (Sigma-Aldrich, 19278) (Homo sapiens (Human)) (UniProt P01308)
Assay: NS-ELISA, plate coated with insulin, antibody at 100 nM

Insulin (Sigma-Aldrich, 19278) (Homo sapiens (Human)), sequence (P01308 25-54 limits assumed, chain 1 of 2): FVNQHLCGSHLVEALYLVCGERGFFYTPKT
Insulin (Sigma-Aldrich, 19278) (Homo sapiens (Human)), sequence (P01308 90-110 limits assumed, chain 2 of 2): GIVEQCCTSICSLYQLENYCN

NS-ELISA binding score (ratio to buffer well): 0.83
B1: v37575 (codrituzumab) (antibody, human IgG1, kappa, V domains shown)
VH: QVQLVQSGAEVKKPGASVKVSCKASGYTFTDYEMHWVRQAPGQGLEWMGALDPKTGDTAYSQKFKGRVTLTADKSTSTAYMELSSLTSEDTAVYYCTRFYSYTYWGQGTLVTVSS
VL: DVVMTQSPLSLPVTPGEPASISCRSSQSLVHSNRNTYLHWYLQKPGQSPQLLIYKVSNRFSGVPDRFSGSGSGTDFTLKISRVEAEDVGVYYCSQNTHVPPTFGQGTKLEIKR

NS-ELISA binding score (ratio to buffer well): 1.78
B2: v36180 (M3-H1L1) (antibody, human IgG1, kappa, V domains shown)
VH: EVQLVQSGAEVKKPGSSVKVSCKASGYTFTDYEMHWVRQAPGQGLEWIGAIDPETGDTAYNQKFKGRATLTADKSTSTAYMELSSLRSEDTAVYYCTRYFSFAYWGQGTLVTVSS
VL: DVQMTQSPSSVSASVGDRVTITCRSSQSLRHSNGNTYLQWYQQKPGKAPKLLIYKVSNRFSGVPSRFSGSGSGTDFTLTISSLQPEDFATYFCYQSKHVPYTFGQGTKVEIKR
